From the supplement of paper PMC12042874
± gives the uncertainty stated by the source.

Experiment: amyloid nucleation score (Sup35N fusion, yeast selection) (log enrichment); library NNK1; higher = more nucleation; inactive = no reads after selection
Summary of the method: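 In psi-negative yeast, Sup35N fusions carrying peptides of 20 random codons were induced with 100 μM copper sulfate for 24 hours. The cells then grew 7 days at 30°C on medium lacking adenine and uracil, and plasmid inserts from input and output were Illumina-sequenced, excluding sequences with under 100 input reads. Nucleation score is the DiMSum log enrichment of output over input reads, centred on the mode score of non-aggregating sequences.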

In the case of WNYSHEV, the amyloid nucleation score is reported as “inactive”.
For WSISGELFTVVSDWPFCPIG, the amyloid nucleation score was “inactive”.
For WTQPVYLAEEGLRVLDNPKA, the amyloid nucleation score was “inactive”.
In the case of WTVSWHIVGYSRVDVMKRTK, the amyloid nucleation score is reported as “inactive”.
For WVSANKSNCQMYSGTQTPCE, the amyloid nucleation score was “inactive”.
For WYVLDDLHWIQGCNIGIVGG, the amyloid nucleation score was “inactive”.
In the case of YASLNYLLQGRVRA, the amyloid nucleation score is reported as “inactive”.
With YAYEIGFVILQFFNNRVFAL the amyloid nucleation score was “inactive”.
For YIDRRLRLRVG, the amyloid nucleation score was “inactive”.
With YINYHCFMIRFQFILVYRYQ the amyloid nucleation score was “inactive”.
With YRPIDFLIPYSSVML the amyloid nucleation score was “inactive”.
For YSGCRTPDTVSVVTSTHAEY, the amyloid nucleation score was “inactive”.
For YVFFCIHTVGTPLGNCSIDV, the amyloid nucleation score was “inactive”.
With YVRGSGMAPGD the amyloid nucleation score was “inactive”.

In order of rising amyloid nucleation score:
1. YIGFVGSGYLVVCVP  -2.02 ± 0.99
2. YRMSRLFTVVGAPVGSSLNF  -1.58 ± 2.4
3. WPVLFFI  -1.46 ± 1.8
4. YGILSLRICSLENSLSA  -1.34 ± 1
5. YGINNLPI  -1.23 ± 0.71
6. YPYRV  -1.12 ± 1.2
7. YVTMYVRMPGRFTTTHMWLI  -0.962 ± 0.63
8. YAQPIFKLCRTG  -0.921 ± 2.4
9. YSRIARLDVKRVGHEPDVRL  -0.921 ± 2.4
10. YSIYRINFPVIALHFTGHCV  -0.902 ± 0.9
11. WSKCVCHLPR  -0.897 ± 1.6
12. YLVILKITGGSDVPTDQMVW  -0.88 ± 0.32
13. WRESSWLCMWERNVKVDWGR  -0.87 ± 1.7
14. YGTVTGEIIYFLSYLVIMRM  -0.848 ± 0.56
15. YIAMYGARTPSCVVKPG  -0.832 ± 0.55
16. YSIFREW  -0.817 ± 0.53
17. YRIHKIIKEPAEVTSLLRW  -0.813 ± 0.52
18. YCMYMVWLKGK  -0.747 ± 0.37
19. YNKGIRRSDQGLKWTFLWPE  -0.712 ± 0.53
20. WSPTVAMLDGAVRGVAPATH  -0.7 ± 0.57
21. YPTSCVYMCQQAKPFLVLIL  -0.655 ± 0.6
22. WSYMVL  -0.645 ± 0.81
23. YPDNMWYLCMLCRGWMCETR  -0.644 ± 0.62
24. YCSQPSAWSLRLNRSCPHNM  -0.593 ± 1.1
25. YIRGYTIFSNWCFGLASGSA  -0.525 ± 0.83
26. YDYMVALFSRS  -0.479 ± 0.66
27. YCLSYEDCYWYVSVSLRYLW  -0.477 ± 0.31
28. YNYICTDSWILSTMVDFVHL  -0.442 ± 0.92
29. YEPDELTWSHCTELTEALML  -0.433 ± 0.66
30. WRFMRFSSGRFNIGEYI  -0.431 ± 1.4
31. YSCPNLIWA  -0.424 ± 0.38
32. WYRVR  -0.421 ± 1.1
33. YMEGAGRYWRGQRKLPPCIA  -0.414 ± 0.67
34. YHSSKGCIVCCR  -0.391 ± 0.24
35. YPMRTQRVASHMV  -0.383 ± 0.58
36. YLNYWFR  -0.341 ± 0.28
37. YLSIKVITQGDWKCQVRVLW  -0.332 ± 0.55
38. YRGTLDNKMGFYIGYHHDRS  -0.322 ± 0.56
39. YNMVYQCLIRCVAILFNLGR  -0.321 ± 0.65
40. YRIPLARMWMVTLPL  -0.317 ± 0.8
41. YMGPVV  -0.313 ± 0.33
42. YADWLEDCETVP  -0.309 ± 0.45
43. YTQSWQ  -0.309 ± 0.51
44. YGRRGNFPSRWTSQHADIKF  -0.308 ± 0.57
45. YFHPLTKLI  -0.288 ± 0.82
46. YMWFMNRSILIIAELFVVFT  -0.287 ± 0.48
47. YMSWASLRKHFIFVV  -0.282 ± 1.2
48. WVSSEWISTC  -0.268 ± 1.4
49. YPGNSGSIY  -0.266 ± 0.91
50. YRCAYFL  -0.25 ± 0.69
51. YRFWEI  -0.25 ± 0.35
52. WYLGNAPRGATRA  -0.229 ± 1
53. WPTLIINDAFILRRRNMDSE  -0.223 ± 0.32
54. YPLVFRIMDVVSPPPHWVLF  -0.219 ± 1.2
55. YVIHLPKCTKLWMWANCFLW  -0.215 ± 0.62
56. YLINRRIYVPVYLLALVISL  -0.189 ± 0.4
57. WSNPPITCSSVGINHHVSVV  -0.171 ± 0.33
58. YRGIEAFCAGTNWTSPKWSR  -0.169 ± 0.3
59. WRLFIWDRGSLWFEISYYFR  -0.164 ± 0.3
60. YFPVGWLTLGISPCGVGDLF  -0.151 ± 0.43
61. YSVINWFMVAYYRADRLVNG  -0.144 ± 1.2
62. YNMREVLSCKF  -0.114 ± 0.59
63. YTHDIRSVGGLQESGLGVWV  -0.094 ± 1.1
64. WTCLKQEPLAWRWL  -0.093 ± 0.94
65. YVDSSI  -0.08 ± 0.97
66. YNGGCACMEAVMRFGGFFTL  -0.066 ± 0.28
67. WWKRKTSFVSRSYQVRFAQF  -0.058 ± 1.1
68. YSCGSIPYIRLVLKLIGYVI  -0.016 ± 0.39
69. YFTRFGHSELRSFMLVGTDM  -0.007 ± 0.28
70. YTEETYKLCVWMSDRSIRLN  0.001 ± 0.85
71. YLKMFV  0.01 ± 0.32
72. YFWGKHTRFMISY  0.018 ± 0.36
73. YIGVRCG  0.026 ± 0.51
74. YTCSVGDVMINDSETSSKAG  0.053 ± 0.24
75. YIVVCSIRNLGRINLRGSDT  0.056 ± 0.8
76. WVLYSIILCERCNHKGTSDG  0.057 ± 0.53
77. YCIASSVGWFVFVIWPLRKS  0.065 ± 0.56
78. YRIKGVNWALPLCLALLSLR  0.068 ± 0.61
79. YDNWVVGNYGLSAERICRVE  0.085 ± 0.77
80. YAFGHFCTDADSFCGRCVIL  0.09 ± 0.76
81. YGRGESMLHAGGNWEWTGQE  0.09 ± 1.1
82. YSCFDRAPRFETSVESCDMS  0.093 ± 0.87
83. YSVWVYRLMRYELNVTFCR  0.093 ± 0.2
84. YLWMFCYMYREVAIRVNVGG  0.1 ± 0.34
85. YLQETLYNKWDWFGNHQGLM  0.107 ± 0.26
86. YFKFRGDDCENYWSVSGNEA  0.111 ± 1.2
87. YFYDVMNLRCLVFNKSWFVL  0.119 ± 0.51
88. YPNVRSTYGDHSLLSNVAKG  0.132 ± 0.66
89. WWVGCRACLPWDASSGKLLG  0.139 ± 0.34
90. YERVRPGAIHFRIETI  0.146 ± 0.53
91. YHTTFSNVPFKGHARNAQRG  0.172 ± 0.66
92. YAPLDDSMKLCHERGESLCM  0.186 ± 0.83
93. YRPLVTPALSLTLNRFKVDV  0.187 ± 0.35
94. YFGDAGAFGFFSGLG  0.192 ± 0.61
95. YLISYRLTPSYASVNDCFPD  0.203 ± 0.46
96. WYIMGFTNDRVLRNLMCYTC  0.21 ± 0.35
97. YQNFPVKLITQKCLCWIDRC  0.216 ± 0.31
98. YSLVDTTLVILS  0.226 ± 0.36
99. YGNIGV  0.231 ± 0.81
100. WSVVLDFTVDLVHFGPVGRC  0.242 ± 0.36
101. YGNLYCQTFLVWCRNIFLLI  0.255 ± 0.41
102. YASGLILIKSPFV  0.276 ± 0.34
103. YCDVSTYMSEHTISVAQAQS  0.284 ± 0.41
104. WYDAK  0.286 ± 0.36
105. YCVKV  0.308 ± 0.62
106. YSYFSPDFRRSQHQGGVCPA  0.329 ± 0.53
107. YCHSVVFV  0.352 ± 1
108. YSYSVAV  0.38 ± 0.51
109. YRHPVMTWEPSRDLSFVLCL  0.388 ± 0.84
110. YLWADTRCLTGVW  0.413 ± 1.1
111. YRDSGDRNLGIAPI  0.449 ± 0.97
112. YLGSWIKHRHAQWIARVRNR  0.508 ± 0.29
113. WSDHDCIRPNFKYCMIRGRS  0.531 ± 0.3
114. YRVVYRKNVDCTMYQFMSRR  0.539 ± 0.31
115. YNLGQVFSWINDTTSMMCGK  0.567 ± 0.32
116. WYRLFALIGLAYLH  0.586 ± 0.56
117. YVRVRSIDVLQQKRSLFVRD  0.595 ± 0.97
118. YLSHWQFAFIHLNANILL  0.596 ± 1.2
119. WYASRTTSIEYTKVYKCGGP  0.599 ± 0.43
120. YGEHWSS  0.645 ± 1.2
121. WVRLINSGGQSYFRCGEGRS  0.654 ± 1.2
122. YFRGNVNAWLLWSEICQVPF  0.677 ± 0.88
123. YIIWVYCVRMNSLHELLAMS  0.684 ± 0.8
124. YSARMLIRLSLLGFLPVSAP  0.711 ± 0.55
125. YLWLVWEDV  0.721 ± 0.69
126. WRRNGNAGMSNQCWVRVKFK  0.775 ± 0.46
127. YKEQGTPHLLYADYEARRDG  0.791 ± 0.66
128. YVDVSSS  0.834 ± 0.61
129. YEMVRGCLNMSMMTDKFRAE  0.851 ± 0.67
130. YPSVLRINTTFASDLTG  0.894 ± 0.3
131. YKDFVGRTEFYRVGMFRLTE  0.912 ± 0.43
132. WVLKL  0.916 ± 0.54
133. YAAVLLNFT  1.09 ± 0.28
134. YVCKIYFHDFDRNMGILEDH  1.13 ± 0.85
135. YHKRVNFSVRAGCCC  1.29 ± 0.43
136. YRTVSDTVAY  1.42 ± 0.79
137. WSSYGCAAEMDALVCHGDAF  1.47 ± 0.88
138. WRYKIIRSR  1.5 ± 0.4
139. YCVVFYP  1.66 ± 0.61
140. YSKWSISTFECMWAKNWRGD  1.66 ± 0.39
141. YRVVLAECTSGYWEDIYSHI  1.75 ± 0.16
142. YLHWTQEDLRGNILGWSMWS  2.32 ± 0.16
143. YTFNVVCILTTEYWGNGWLY  2.91 ± 0.16
144. YFRCKFDRASIQHLIASRAH  3.18 ± 0.19
145. YVLIVNWIRSK  4.42 ± 0.075
146. YSYSGVRMVVILNWHGKWWC  4.87 ± 0.096
147. WQKSWR  5.24 ± 0.074
148. YARSSFEDIVVFRDRFG  5.47 ± 0.092
149. YCPNLYVVDGCFVLNSKLIL  5.63 ± 0.072
150. YRCGECNSSVMCMGLRCLWM  5.87 ± 0.059
151. YDGPLFVTFILI  5.88 ± 0.077
152. YVVFMYFAF  5.9 ± 0.068
153. YCWCINNH  6.26 ± 0.084
154. YGSKICSIAFCPLLHVQNHP  6.567 ± 0.055
155. YSINTCCQLVIIDPGSSYEM  6.634 ± 0.047
156. YEVIHICTNLEPIVRNCMGG  7.024 ± 0.066
157. YSNWSCLYCSKSL  7.552 ± 0.053
158. YNVQVLQVGGRLCRNKCSSC  7.825 ± 0.061
159. YGVEMLPHISNAVTLFFGN  8.133 ± 0.057
